Laboratory results: paper PMC8080847

Legend:
[1] = target: EGFR on Cos7 cells (African green monkey (endogenous in Cos7)); test: single-molecule diffusional mobility shift assay (smDIMSA); living Cos7 cells treated with EGF, no pertuzumab (mock); EGFR bait labelled with Fab-Alexa Fluor 647, tracked before and after the anti-ErbB2 antibody
[2] = target: EGFR on Cos7 cells (African green monkey (endogenous in Cos7)); test: single-molecule diffusional mobility shift assay (smDIMSA); living Cos7 cells treated with EGF and pertuzumab; EGFR bait labelled with Fab-Alexa Fluor 647, tracked before and after the anti-ErbB2 antibody
[3] = target: mEos3.2-CD86 (CD86 truncated at R227) (UniProt P42081); test: single-molecule diffusional mobility shift assay (smDIMSA); homodimer format on living HeLa cells: receptor partially labelled with the Alexa Fluor 647 Fab (20 nM, 15 min) of a monoclonal antibody, tracked before and after 15 min with the same full-length antibody; 37 °C; peak shift averaged from multiple cells

| diffusion coefficient shift (EGF-treated cells) [1] | diffusion coefficient shift (EGF-treated cells, with pertuzumab) [2] | peak shift of the diffusion coefficient [3] | Substance |
| --- | --- | --- | --- |
| 12% | 6% | – | ErbB2 on Cos7 cells (receptor) |
| – | – | < 1% | mEos3.2-CD86 (CD86 truncated at R227) (from UniProt P42081 24-227) (receptor) |
